Test results reported in article PMC6959593.

Experiments:
[1] = target: VEGFR-2 of HUVECs (human (endogenous in HUVECs)) (UniProt P35968)
[2] = target: VEGFR-2 of HUVECs (human (endogenous in HUVECs)) (UniProt P35968); remark: listed apart in the source
[3] = target: VEGFR-2 of HUVECs (human (endogenous in HUVECs)) (UniProt P35968); assay: proximity ligation; Duolink in situ PLA on HUVECs treated with VEGF/CaD for 2 min, fixed in paraformaldehyde and permeabilized; goat anti-VEGF and rabbit anti-VEGFR2 antibodies overnight at 4°C; dots per cell counted with ImageJ

UniProt P35968, sequence (P35968 20-1356): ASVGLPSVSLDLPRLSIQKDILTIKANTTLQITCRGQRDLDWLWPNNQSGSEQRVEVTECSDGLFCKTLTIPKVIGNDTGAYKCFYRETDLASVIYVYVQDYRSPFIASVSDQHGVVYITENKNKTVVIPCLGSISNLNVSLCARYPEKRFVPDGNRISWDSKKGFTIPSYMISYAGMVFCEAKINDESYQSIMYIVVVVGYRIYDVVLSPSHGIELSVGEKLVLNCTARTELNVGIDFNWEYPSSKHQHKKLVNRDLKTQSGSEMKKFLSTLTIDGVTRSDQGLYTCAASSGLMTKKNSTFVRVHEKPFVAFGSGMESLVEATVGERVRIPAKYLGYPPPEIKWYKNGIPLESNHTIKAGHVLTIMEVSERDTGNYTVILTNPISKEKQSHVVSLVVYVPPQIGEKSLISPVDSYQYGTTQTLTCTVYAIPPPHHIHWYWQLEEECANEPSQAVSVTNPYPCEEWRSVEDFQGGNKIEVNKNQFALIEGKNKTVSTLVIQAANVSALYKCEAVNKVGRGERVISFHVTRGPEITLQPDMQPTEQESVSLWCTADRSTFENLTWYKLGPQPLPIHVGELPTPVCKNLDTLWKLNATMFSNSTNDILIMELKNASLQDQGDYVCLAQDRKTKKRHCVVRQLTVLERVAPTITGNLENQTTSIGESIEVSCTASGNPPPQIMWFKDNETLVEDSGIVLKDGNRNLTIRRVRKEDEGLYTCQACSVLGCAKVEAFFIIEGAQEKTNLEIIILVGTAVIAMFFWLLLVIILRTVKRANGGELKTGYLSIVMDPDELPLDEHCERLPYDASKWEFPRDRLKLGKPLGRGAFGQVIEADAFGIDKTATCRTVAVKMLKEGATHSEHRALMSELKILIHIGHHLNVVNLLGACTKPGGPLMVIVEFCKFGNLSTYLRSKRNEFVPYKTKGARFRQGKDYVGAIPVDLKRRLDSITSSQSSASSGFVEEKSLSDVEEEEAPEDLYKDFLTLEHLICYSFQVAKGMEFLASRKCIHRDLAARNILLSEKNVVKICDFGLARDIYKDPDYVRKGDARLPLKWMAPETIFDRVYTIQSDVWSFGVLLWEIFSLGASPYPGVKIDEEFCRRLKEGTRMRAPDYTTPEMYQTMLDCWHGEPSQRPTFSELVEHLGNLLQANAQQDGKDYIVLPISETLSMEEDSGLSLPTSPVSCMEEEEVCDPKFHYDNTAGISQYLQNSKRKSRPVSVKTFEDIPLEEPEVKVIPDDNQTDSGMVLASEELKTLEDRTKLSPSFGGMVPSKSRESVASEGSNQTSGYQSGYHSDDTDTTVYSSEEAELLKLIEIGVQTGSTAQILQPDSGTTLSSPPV

recombinant VEGF165 (ligand) showed a VEGF165 (25 ng/mL)-induced phosphorylation of VEGFR-2 in HUVECs (Western blot, 2 min), VEGF165 premixed with CaD (6-100 μM) for 60 min [1] of under 50%, a VEGF165 (25 ng/ml)-induced phosphorylation of VEGFR-2 in heparanase (HPSE, 0.5 μg/ml)-treated HUVECs, with CaD (100 μM), relative to VEGF alone (Western blot) [2] of 50% and a decrease of the PLA signal in the presence of CaD [3] of 60%.
